PMC5896956, “Small molecule induced oligomerization, clustering and clathrin-independent endocytosis of the dopamine transporter” (eLife, 2018)

B1: HA-DAT (endogenous, HA-DAT knock-in mouse) (natural protein, UniProt Q61327 1-619, looked up)
chain: MSKSKCSVGPMSSVVAPAKEPNAVGPREVELILVKEQNGVQLTNSTLINPPQTPVEVQERETWSKKIDFLLSVIGFAVDLANVWRFPYLCYKNGGGAFLVPYLLFMVIAGMPLFYMELALGQFNREGAAGVWKICPVLKGVGFTVILISFYVGFFYNVIIAWALHYFFSSFTMDLPWIHCNNTWNSPNCSDAHSSNSSDGLGLNDTFGTTPAAEYFERGVLHLHQSRGIDDLGPPRWQLTACLVLVIVLLYFSLWKGVKTSGKVVWITATMPYVVLTALLLRGVTLPGAMDGIRAYLSVDFYRLCEASVWIDAATQVCFSLGVGFGVLIAFSSYNKFTNNCYRDAIITTSINSLTSFSSGFVVFSFLGYMAQKHNVPIRDVATDGPGLIFIIYPEAIATLPLSSAWAAVFFLMLLTLGIDSAMGGMESVITGLVDEFQLLHRHRELFTLGIVLATFLLSLFCVTNGGIYVFTLLDHFAAGTSILFGVLIEAIGVAWFYGVQQFSDDIKQMTGQRPNLYWRLCWKLVSPCFLLYVVVVSIVTFRPPHYGAYIFPDWANALGWIIATSSMAMVPIYATYKFCSLPGSFREKLAYAITPEKDRQLVDRGEVRQFTLRHWLLV
notes: it is reached by the HA11 antibody from outside the cell; Detected with the rat DAT antibody; oligomer species at 190 kDa; also called mouse DAT; source: endogenous (knock-in), striatal synaptosomes of adult HA-DAT mice
B2: DAT fused to yellow fluorescent protein (YFP) (YFP-DAT) (natural protein, human, UniProt Q01959 1-620, looked up)
chain: MSKSKCSVGLMSSVVAPAKEPNAVGPKEVELILVKEQNGVQLTSSTLTNPRQSPVEAQDRETWGKKIDFLLSVIGFAVDLANVWRFPYLCYKNGGGAFLVPYLLFMVIAGMPLFYMELALGQFNREGAAGVWKICPILKGVGFTVILISLYVGFFYNVIIAWALHYLFSSFTTELPWIHCNNSWNSPNCSDAHPGDSSGDSSGLNDTFGTTPAAEYFERGVLHLHQSHGIDDLGPPRWQLTACLVLVIVLLYFSLWKGVKTSGKVVWITATMPYVVLTALLLRGVTLPGAIDGIRAYLSVDFYRLCEASVWIDAATQVCFSLGVGFGVLIAFSSYNKFTNNCYRDAIVTTSINSLTSFSSGFVVFSFLGYMAQKHSVPIGDVAKDGPGLIFIIYPEAIATLPLSSAWAVVFFIMLLTLGIDSAMGGMESVITGLIDEFQLLHRHRELFTLFIVLATFLLSLFCVTNGGIYVFTLLDHFAAGTSILFGVLIEAIGVAWFYGVGQFSDDIQQMTGQRPSLYWRLCWKLVSPCFLLFVVVVSIVTFRPPHYGAYIFPDWANALGWVIATSSMAMVPIYAAYKFCSLPGSFREKLAYAIAPEKDRELVDRGEVRQFTLRHWLKV
notes: Dopamine transporter (DAT), human; In the FRET experiment one copy carried CFP (CFP-DAT) and the other YFP (YFP-DAT); also called CFP-DAT (the copy with CFP in place of YFP, donor in the FRET experiment); source: PAE cells, stably expressed, in lysate; for FRET in living PAE cells stably co-expressing CFP-DAT and YFP-DAT

What was measured:
[1] = molecular target: the molecule itself; test: SDS-resistant oligomers on SDS-PAGE and western blot; striatal synaptosomes of adult HA-DAT mice in KRH/G, vehicle (DMSO) or 10–20 µM AIM-100 for 2 hr at 37°C; pelleted synaptosomes denatured in Laemmli buffer, SDS-PAGE, blot with DAT antibody
[2] = molecular target: the molecule itself; test: SDS-resistant oligomers on SDS-PAGE and western blot; PAE cells stably expressing the tagged transporter, vehicle (DMSO) or 20 µM AIM-100 for 2 hr at 37°C (also after cocaine, dopamine, amphetamine, modafinil, KRCA-0008, CHC siRNA, at 4°C or 20°C); lysis in TGH buffer, Laemmli buffer (2% SDS, 5% β-mercaptoethanol) 5 min at 95°C, 7.5% SDS-PAGE, blot with GFP antibody; oligomers (O) against monomers (M)

| Protein | stoichiometry N [1] | stoichiometry N [2] |
| --- | --- | --- |
| B1 | ~3 | – |
| B2 | – | ~3 |
